Laboratory results taken from paper PMC2868174.

Molecular target: ERK2 (UniProt P63086)
Test: steady-state kinetics, forward and reverse reaction
Conditions: reference: unphosphorylated Ets; sites T38

- other: Km: same; reference 18.0 ± 2.0
Substance: Ets-1 (Ets; residues 1–138) 1-138 (from UniProt P27577) p-Ets (ERK2-phosphorylated, Mono-Q purified)
